Measurements published in the DeepSol protein solubility set.

Experiment: soluble on expression in E. coli; label from the status in PepcDB or PDB records

Row | Sequence | soluble on expression in E. coli
1 | VVVTDMGILAKRSVDGSLDIFVQSLSQGLPIANAKVDVVGRNGLSVAEGFTDLGGHVHLPKLGQLRREKRPLFYRVEKAGDVSFLPIGDWRRELDMSRFDIGGSNESEDPNTLSAYLFTDRGLYRPGETAHVASLVRSQSWGASLDGLPVKMVVTDPRGIDVLDRTFNLDSSGFNSLDFSSTEAAVAGEYTASLSLIRDKHNLTRLGEESFKVRDFEPDRIKVRVTLGATESGTSIGWLKPEEVSAKVQAEQLFGGPAGDRRVTGEMVLSPTDISFKELPGYYFGVQGE | not soluble
2 | TDNFSWSTNLNFSYNDNKIKELVDDLPNGLTLTDFGGAKVILKEGGHYGDLYVRHLMRDENGKPLQNEKGEPIVSGDSMDELEYAGNMNAKVNMGWTNTFRYKDFSLSFLIDAKFGGKVISMTEAALDGWGVSKRSGEARDAGGITVDGVKFDADKYYRTTGNNNFNSPYAVENYVYDATNIRLREVTFGYTFRNLLGAGKNLTAAIIGRNLFFFHKDAPMDPDVSAGTGNGIQGVDMFALPTSRSFGLNLKLNF | not soluble
3 | MGSSHHHHHHSSGLVPRGSHMSELLATYLLTEPGADTEKKAEQIATGLTVGSWTDLPLVKQEQMQKHKGRVIKVEEREGTAASEKQAVITIAYPEINFSQDIPALLTTVFGKLSLDGKIKLIDLHFSEAFKRALPGPKFGVYGIRKLLGEFERPLLMSIFKGVIGRDLSDIKEQLRQQALGGVDLIKDDEIFFETGLAPFETRIAEGKQILKETYEQTGHKTLYAVNLTGRTADLKDKARRAAELGADALLFNVFAYGLDVMQGLAEDPEIPVPIMAHPAVSGAFTSSPFYGFSHALLLGKLNRYCGADFSLFPSPYGSVALPRADALAIHEECVREDAFNQTFAVPSAGIHPGMVPLLMRDFGIDHIINAGGGVHGHPNGAQGGGRAFRAIIDAVLEAQPIDEKAEQCKDLKLALDKWGKAEAV | soluble
4 | MGSDKIHHHHHHKRQVSGDESYLDAAPLAELHAPAGMILPITTGDYVIPVTKGSGAVGKALDIRPPAQPLALVSGARTQFSGDTATLLVENGRSSTLWPQVVSVIQAKNYPIEKRDDASQTLTTDWVNWNRLDEDEQYRGRYQISVKPQGYQQAVTVKLVNLEQAGKPVADAASLQRYSTEMMNVISAGLDKTATDAANAAQNRSAATMDVQSAADDTGLPMLVVRGPFNLVWQRLPAALEKVGMKVTDSTRSQGSMAVTYKPLSDSDWRDLGASDPGLASGDYKLQVGDLDNRSSLQFIDPKGHTLTQSQNDALVAVFQAAFNK | not soluble
5 | MTTETQADRTQQAVGRIIGSIGVVTTQTTGRHQGILTSWVSQASFTPPGIMLAIPGEFDAYGLAGQNKAFVLNLLQEGRSVRRHFDHQPLPKDGDNPFSRLEHYSTQNGCLILAEALAYLECLVQSWSNIGDHVLVYATVQAGQVLQPNGITAIRHRKSGGQYLEHHHHHH | not soluble
6 | LFGVTSELSKDGRERIYRVEGQLFYASVEDFMAAFDFREALDRVVIDVSRAHIWDISSVQALDMAVLKFRREGAEVRIVGMNEASETMVDRLAIHDKPGAMDRLVAH | not soluble
7 | MKKWLALFVFGMVSLFATSAHAESYETTKTLKVYESRSFNSPVKKELQPGERVYVTNQHPSGWWKISGGFIAPEGAKVEINRTFEAFDWINMDSAKYVFSPQTVIARDGTLRGEILIDTYLGQKWTSVNGMPQIMKQNFAAYSSPEAKNPDAWFAPQTVNILQTKENGWSLINTYLGPKWIVRYPHVEHINRDFYAYNEPKYMHHGVKFSAQSVRVLQQGENGWKKIKAEVGEKWIAPQGSYYHVPNVFTAFDQPFGRAIGTFAPQTVFVVEESTTSFGWLKIRTYLGDSWIRTNRN | not soluble
8 | MISRVGADLGLSATAHVPRTDEPQKAKDFTTDQEVRWCPGCGDYVILATIRSFLPELGLRRENLMFVSGIGCSSRFPYYLDTYGLHSIHGRAPAIATGLAVTRPDLSVWVVTGDGDALSIGGNHLIHALRRNVNMTILLFNNRIYGLTKGQYSPTSEVGKVTKSTPLGSVDHPFNTLSLALGAEATFAARAMDSDRKGLTEVLRQAAAHRGTSFVEIYQDCPIFNDGSFDVLRKDGSEQRLIPLTHGEPIVFGGAGEYCVVRSGFGLKVVATADVDRDDIVVHDAHTDDPDYAYALSRLSDQDLTHTVTGVFRSVTRDTYDDMVRLQNEIAQEKDPVDDGSLQRLLTGHDTWTVE | not soluble
9 | MGSDKIHHHHHHMREIMSIITLPRKIYQQRDIIDNIRETLQLKEPILLVSDRNIMKLYGQRIKNALDGSDYRVIEDVRPEPEVSDIENTYRSLSGFQPKTIIAFGGGSVIDFAKSIDVKISYPDRSLEEVNPFEPLNLKADLVAIPTTSGTGSDVSFGIVITDQGRKLALGNFDLVPYVSVLDSSLVPSDPSIIRPTGVDALVHSFEALTANTSSIFTDALAEKAIETIFGILIDPMKGEEDARENMHLAATMAGISFTNSGTALAHALGHSFGSTHHVVHGTCVGLFLPYVIEFNSSDENASEKYARIARRLGYKDAISALRDLYRRIGQPLTVAEIGIPKDAYMKSLDSMVEKALADSELAFNPVIAGDEDVRSIYIKAYGD | not soluble
10 | MQDELFETEKIPPKNTKNTKNAPKKSFEEHVHSLERAIDRLNDPNLSLKDGMDLYKTAMQELFLAQKLLENAYLEHEKLQTPDQKA | not soluble
11 | MGSDKIHHHHHHMTTAPLSWEELETLTDYQIDTVNGLTNAKARLRLFGQPESDVRVTLYRDNHAWCPYCQKVWLWLEEKQIPYRIEKVTMFCYGEKESWYKRKVPSGMLPAIELDGRIIKESDDILIALEKVFAPLNQGMEDRMVLPLRQLERLLFRAWCVWLCSRAGSSQQEQRNREQFIEMVARIEEALGRTPSPYFLDSFGIVDVIFTPYLERMNASLYYYKGYSLREENPRLSAWFAAMESRPTYCGTQSDFHTHAHDLPPQMGGCWENGETQMLLNKARVDNGPWFGLPDVAYPEPENSRMEALKRTIEHRINIIRVNPLDDKLFDQALRCALTHMMTGEDYVPPSGADVALRYLRDRINVPRDMSIYAAKRLRESLEKTAALAGDGQPDPIPTKHRRDQDPSNFVIK | not soluble
12 | MSTKADMAIAFHDKGYNCAQAVACSFCQEFGVAEEEMFRIAEGFGLGMGMMEVCGALSGMMMIIGLENSVGEPEKGRLTKGDTYRKVKEYVKKFQEQNGSYLCRELKGVETGKVLRSCPDCIRDAVALTEEYLAAQKQN | not soluble
13 | MAGDPMKKLAFAITATSGAAAFLTHHDAQASTQHTVQSGESLWSIAQKYNTSVESIKQNNQLDNNLVFPGQVISVGGSDAQNSSNTSPQAGSASSHTVQAGESLNIIASRYGVSVDQLMAANNLRGYLIMPNQTLQIPNGGSGGTTPTATTGSNGNASSFNHQNLYTAGQCTWYVFDRRAQAGSPISTYWSDAKYWAGNAANDGYQVNNTPSVGSIMQSTPGPYGHVAYVERVNGDGSILISEMNYTYGPYNMNYRTIPASEVSSYAFIHLEHHHHHH | not soluble
14 | MAHHHHHHMELEEFWLTDGSISDWGEVKKFCGFANTLRTIYVERNPIEQDKRYRDKVYMNLPFVTQIDSWPVVNKDNLEGDRLIQRRAS | soluble
15 | GSHMASMTGGQQMGRGSNNGDICIKDSINTLWTGINPPPNCQIVENTNTNDGKLTLVLVKNGGLVNGYVSLVGVSDTVNQMFTQKTANIQLRLYFDSSGNLLTEESDLKIPLKNKSSTATSETVASSKAFMPSTTAYPFNTTTRDSENYIHGICYYMTSYDRSLFPLNISIMLNSRMISSNVAYAIQFEWNLNASESPESNIATLTTSPFFFSYITEDDN | soluble
16 | MGSDKIHHHHHHMFTQVYEEIRQLTISKVLDFYDHEVRRLDEAARQTKYQKMSASPFLFFRGSSHLFYYDVTRIPLGFDTPPETPTWIQGDLHFENFGVHGNAKGEIIYDVNDFDEGYLGSYLYDLIRMAVSVQLFAEEAGYDAKPAIAAYVQHYLDDLRQYAKGKNPSKVCFTTDNTKGPIRKLIKKAEKKKAELLGERTTVVDGQRRFADLPDMKRLDSSAYTAIEAVWPEYIASIDAEDRQEDGFYAIKDIVYKLDSGTASIGLERYYILVEGTGGEHEDLILEMKQAQSSVPSLFVPAYLQEVETVHQGRRIVTSQKAMQAHEDPYLGYVTMHGKEYYVRERSPYKKKLKAKHIKSQDDLENVLSIQGQITAKIHARADMDAGVDVDILHHHADVVIIESIGVSDAEFIRQIQRWSSAYAARTTLDFQVFLSWLANR | not soluble
17 | MEAAASEPSLDLDNLKLLELIGRGRYGAVYKGSLDERPVAVKVFSFANRQNFINEKNIYRVPLMEHDNIARFIVGDERVTADGRMEYLLVMEYYPNGSLCKYLSLHTSDWVSSCRLAHSVTRGLAYLHTELPRGDHYKPAISHRDLNSRNVLVKNDGTCVISDFGLSMRLTGNRLVRPGEEDNAAISEVGTIRYMAPEVLEGAVNLRDCESALKQVDMYALGLIYWEIFMRCTDLFPGESVPEYQMAFQTEVGNHPTFEDMQVLVSREKQRPKFPEAWKENSLAVRSLKETIEDCWDQDAEARLTAQCAEERMAELMMIWERNKSVSPTAHHHHHH | soluble
18 | MINKIFALPVIEQLTPVLSRRQLDDLDLIVVDHPQVKASFALQGAHLLSWKPVGEEEVLWLSNNTPFKTGVALRGGVPICWPWFGPAAQQGLPSHGFARNLPWALKAHNEDDNGVMLTFELQSSEATRKYWPHDFTLLARFKVGKTCEIELEAHGEFATTSALHSYFNVGDIANVKVSGLGDRFIDKVNDAKEGVLTDGIQTFPDRTDRVYLNPEACSVIHDATLNRTIDVVHHHHLNVVGWNPGPALSVSMGDMPDDGYKTFVCVETVYATAPQQATEEKPSRLAQTICVAKR | not soluble
19 | MAHHHHHHMLFPTACPDLIAREHLFNTLLNPVVYRWMWGRLRSCFSDSEVMAYTNNLSCVSHSVVCELVNKYPHLHQHVFAGPVTVLNERKEAAVTAHAEPLMVDPVGWTRALAEVCRRDYDVQFALGERLEDAVTYLKYDVESTRSIRVSKPDPSHPEQRLFASEGYDVVILAAGASTGTMTLPNSRLPVLGLSGLSAVVQQPSGALKDAVWSLFQCRPHRSPAAAASSSSPEVDAPSSHEGVADPLARPAPGTLALLSSHCSPVWLHVAQ | soluble
20 | MAEAAQAPQQQFAIQRIYLKDVSFEAPSSPVMFQKEWNPDVKLDLDTQSRELGQGVYEVVLRLTVTVKNAEETAFLCEVQQAGIFSAEQMEAGQLAHCLGAFCPNILFPYARETISSLVVKGTFPQLNLAPVNFDALFMNYLQQQAQEGATANA | not soluble
21 | MLRPVETPTREIKKLDGLWAFSLDRENCGIDQRWWESALQESRAIAVPGSFNDQFADADIRNYAGNVWYQREVFIPKGWAGQRIVLRFDAVTHYGKVWVNNQEVMEHQGGYTPFEADVTPYVIAGKSVRITVCVNNELNWQTIPPGMVITDENGKKKQSYFHDFFNYAGIHRSVMLYTTPNTWVDDITVVTHVAQDCNHASVDWQVVANGDVSVELRDADQQVVATGQGTSGTLQVVNPHLWQPGEGYLYELCVTAKSQTECDIYPLRVGIRSVAVKGEQFLINHKPFYFTGFGRHEDADLRGKGFDNVLMVHDHALMDWIGANSYRTSHYPYAEEMLDWADEHGIVVIDETAAVGFNLSLGIGFEAGNKPKELYSEEAVNGETQQAHLQAIKELIARDKNHPSVVMWSIANEPDTRPQGAREYFAPLAEATRKLDPTRPITCVNVMFCDAHTDTISDLFDVLCLNRYYGWYVQSGDLETAEKVLEKELLAWQEKLHQPIIITEYGVDTLAGLHSMYTDMWSEEYQCAWLDMYHRVFDRVSAVVGEQVWNFADFATSQGILRVGGNKKGIFTRDRKPKSAAFLLQKRWTGMNFGEKPQQGGKQ | soluble
22 | MDFDNFPIEQLSHLISFDIEWTETSVADAIKIKDIILRSPHFESASILSHCVNKIKPEVLKVFHPNYIATDRDYNEMLELRNDYFRSIVYAGGSSIDIYNVNLEDPDDFE | not soluble
